B1: Hairpin Ribozyme (parent)
chain: GUCCUCUUUCACGUGCGCGUGAAAGAGAGAAGUGAACCAGAGAAACACACGUUGUGGUAUAUUACCUGGUA

Variants of: B1
Assay: self-cleavage, relative activity (ratio to wild type); higher = more cleavage; co-transcriptional

Variant	self-cleavage
A28G G40A	0.426
A36U A64G	0.219
A30C A41G	0
G27C C65G	0.152
C16U C46G	0.141
G34C G57C	0.195
U8A A41C	0.82
U14G G32U	0.107
U8G G19A	0.533
G56A C66A	0.0948
C6U G17U	0.859
U20A G54C	0.362
C46U G56C	0.204
C37G C65A	0.179
C12U G54U	0.58
G21U A59G	0.0937
G34C G69C	0.564
G25A G29U	0.164
A26C U70A	0.63
A36C G40A	0.162
G13C A35U	0.552
U20C A24U	0.503
C50G A61G	0.175
A24C C37A	0.352

Variant	self-cleavage
U5A U14C	0.343
U2A A23G	0.332
U14C G51U	1.07
G27C A59C	0.104
G17A G56U	0.137
G51C G57A	0.147
C6U G29C	0.13
G15U U33C	0.178
A23U A43C	0.141
U2A C48G	0.162
A30U U70A	0.0595
A22G A30U	0.0767
U62A U67G	0.173
U7G A71C	1.35
A28U U58A	0.36
G13A G68A	0.275
G13U A59C	0.161
G27U A31G	0.164
U2C A24G	0.154
U8A U33C	0.137
C16U G25U	0.873
A24U G34C	1.18
U55C U60C	0.4
U5A	0.368

Variant	self-cleavage
U7C G29A	0.204
G19A G21A	0.659
C16G G51U	0.803
U7A U62G	0.0626
C3A C16U	0.769
U33A U52G	0.111
U33C U60G	0.0999
A23G G69A	0.369
A36U G57A	0.108
C12G A28G	0.889
A45G C48A	0.109
U7G G56U	0.0768
U52G A71U	0.572
G15A G17C	0.83
A49G U58G	0.45
A49C C50G	0.129
U52A U62A	0.24
U7C C38U	0.211
G1A U53G	0.0863
U5C A41U	1.06
C37U G69C	0.364
U2G U7C	0.384
U2G C12G	0.184
U5C A43G	0.201

Variant	self-cleavage
A30U U63A	0.13
A31U U55G	0.089
A31C A36G	0.124
G17A A59C	0.196
C6G U53G	0.454
G1C G40U	0.202
G21U U67A	0.088
A28C A59U	0.14
U2G A24C	0.293
A35U U67G	0.161
C50G G51U	0.375
A23C A30C	0.246
C37G U55G	0.119
U2G U14G	0.322
G17C U33G	0.121
A22U G54U	0.518
U5A G27A	0.179
G1U A31G	0.0331
A35G A39G	0.348
G32U G54U	0.0884
A26G G32C	0.144
A30U G54U	0.165
C4G G34U	0.977
U9G G13C	0.528

Variant	self-cleavage
G25U A35G	0.656
A26C G51U	0.919
G34U A64G	1.17
G19A A49G	0.595
U14A G68U	0.307
A59G A64U	0.181
G42U G57C	0.0657
U33G G69U	0.123
G13A C65G	0.238
A59G C65G	0.247
U55G C66G	0.251
G29U A64G	0.0899
A47G A59G	0.196
G54C U67A	0.167
C10A U14A	0.661
U8A C10U	0.643
G25C U67C	0.134
A24C U53A	1.08
C50A G51U	0.399
C37U G54U	0.443
C12A G34A	1.21
U33A U55A	0.0922
C38G C50U	0.0995
U5G A30G	0.144

Variant	self-cleavage
C12G G19C	1.24
A22G A31G	0.744
C48U C66G	0.138
C12U G56C	0.137
A39G G40C	0.0572
C50G U52A	0.216
C4G A23U	0.147
U20A A24C	0.81
C6G C12G	0.294
A22C U60A	0.664
G13U	0.763
A49G G51A	0.651
A59C U60G	0.274
A36C C65U	0.118
C10A G19U	0.59
G19A G68C	0.194
C6A U60A	0.541
A24G C37A	0.345
C3G C10U	0.213
A22G C46G	0.208
A23C A35U	0.559
C6U U7A	0.515
U2C A43U	0.177
G27C G29C	0.163

Variant	self-cleavage
A45C G68C	0.119
A22U C66U	0.482
U53A A71U	0.706
C4A A22G	0.222
A41G G56A	0.255
G13U G56C	0.12
G1U G54U	0.141
G19U A41U	1.24
A30U A71U	0.101
U67A	0.229
A31G G69A	0.178
G15C G56U	0.113
A11C U52A	0.762
C12G G56U	0.124
U53A A64C	0.122
C12G U60C	1.04
G19C G27U	0.27
G13C A23U	0.491
A31G A64G	0.284
C4G C50G	0.0987
G1C G19C	0.0663
G25A A35U	0.39
A28C	0.497

— the RNAGym collection of RNA variant scans (doi:10.7554/elife.80360)
